B1: TM1769, small subunit of Thermotoga maritima Exonuclease VII (XseB homolog) (natural protein, UniProt Q9X290 1-75, looked up)
chain: MNFEEMMKELEEIVNRLENEDLPLEESIKLFERGVELYRKCKEILQQNRLKIIDVMKELEGEIDASGRDQENELR

What was measured:
SEC = target: the molecule itself; assay: SEC
[1] = target: B1; assay: SEC

Binder | stoichiometry N (SEC) | stoichiometry N [1]
B1 | 4 | –
TM1768, large subunit of Thermotoga maritima Exonuclease VII (XseA homolog) (enzyme, UniProt Q9X289 1-394, looked up) MKDYTYSVTEINEYIKDLIEGDPYLTNVSVYGEISGVRPRKGHIFFSLVEENARLECVIFGGDNMGIRLQEGRMALVEGSVSVYIPHGTYRFICSNVRYLDQAGMYQIKFETTLKKLLEEGLLSRPKKTVPRFPRKIGIITSRDSAALQDVIRTARERKAPIEIYVFHTSVQGDSAREELIKALRKANEYDLDLVMIVRGGGSKEDLWVFNEEDVIREILRLRHPVVTGIGHEIDRVIADFVADVSMHTPTGAAEYVIPDASEIHEDLDSFFEKLITSLSNRFDMEERRLETLYFRLRMIGRRKLELNEFKIERVKELAAKLRKKLMDYFEHNQKKLDSLGRMLESLNPLRPLERGFVLVKKDEKIVKESTDLKRGDVVSLVFKDGTKKAQVIG | – | ~4 TM1769 per TM1768

Reference: PMC2566859 (Nucleic Acids Research, 2008)
